US6716813B2, “Use of antimicrobial proteins and peptides for the treatment of otitis media and paranasal sinusitis” (priority 2000, dated 2004)

Key:
NTHi strain12 = format: cell-based, nontypeable Haemophilus influenzae; settings: 100 mM NaCl in gel
Method: (§1) The bacteria used in the following examples were cultured as follows: Stocks of NTHi12 and M. catarrhalis […] (generous gift of Dr. Xin-Xing Gu) were maintained at -80° C. For experiments, the bacteria were plated on chocolate agar and incubated overnight at 37° C. in 5% CO2. A single colony was then picked and transferred to 10 ml of brain heart infusion (BHI, Becton Dickinson, Cockeysville, Md.), supplemented with hemin (10 μg/ml, Sigma, St. Louis, Mo.) and NAD (10 μg/ml, Sigma, St. Louis, Mo.), and allowed to grow overnight. In the morning, 1/10 volume of the overnight culture was transferred to fresh medium and incubated for 3-hours. The subculture was then washed twice with 10 mM sodium phosphate and the O.D. at 620 nm was determined. For the S. pneumoniae serotypes 3 and 6B (generous gift of Dr. Xin-Xing Gu), a 50 μl aliquot of the -80° C. stock was thawed on ice, added to 10 ml of Todd-Hewitt broth (THB, Becton Dickinson, Cockeysville, Md.) and cultured overnight. […] The subculture was then washed twice with 10 mM sodium phosphate and the O.D. at 620 nm was determined. […] The diameter of the zones of inhibition produced by each of the antimicrobial molecules against the OM pathogens (NTHi, M. catarrhalis and S. pneumoniae) was then measured in three separate experiments and the average and standard deviation were calculated. […]

[1] = test system: M. catarrhalis strain 035E; format: cell-based, Moraxella catarrhalis; settings: 100 mM NaCl in gel
Method: as §1

S. pneumoniae serotype 3 = format: cell-based, Streptococcus pneumoniae
Method: (§2) The bacteria used in the following examples were cultured as follows: Stocks of NTHi12 and M. catarrhalis […] (generous gift of Dr. Xin-Xing Gu) were maintained at -80° C. For experiments, the bacteria were plated on chocolate agar and incubated overnight at 37° C. in 5% CO2. A single colony was then picked and transferred to 10 ml of brain heart infusion (BHI, Becton Dickinson, Cockeysville, Md.), supplemented with hemin (10 μg/ml, Sigma, St. Louis, Mo.) and NAD (10 μg/ml, Sigma, St. Louis, Mo.), and allowed to grow overnight. In the morning, 1/10 volume of the overnight culture was transferred to fresh medium and incubated for 3-hours. The subculture was then washed twice with 10 mM sodium phosphate and the O.D. at 620 nm was determined. For the S. pneumoniae serotypes 3 and 6B (generous gift of Dr. Xin-Xing Gu), a 50 μl aliquot of the -80° C. stock was thawed on ice, added to 10 ml of Todd-Hewitt broth (THB, Becton Dickinson, Cockeysville, Md.) and cultured overnight. One tenth of the volume of the overnight culture was then transferred to fresh medium and incubated for 3-hours. The subculture was then washed twice with 10 mM sodium phosphate and the O.D. at 620 nm was determined. The radial assay method of […] and coworkers was used, with minor modifications ([…] et al., 1991). The subcultured bacteria (4×10^6 CFU/10 ml underlay gel) were mixed with melted underlay gel at 42° C. (0.1×culture broth-BHI for NTHi and Moraxella and THB for S. pneumoniae-10 mM sodium phosphate, 0.8% low electroendosmosis (EEO)-type agarose) and poured into 8 cm×8 cm square petri plates. The gel was allowed to solidify in the petri plates and wells were punched out with a calibrated 200 μl micropipette tip, cut off at the 50 μl mark (approximately 3 mm). The antimicrobial peptides and proteins were dissolved in 0.01% acetic acid and 4 μl was added to each well. The plates were then incubated for 3 hours at 37° C. in the 5% CO2 incubator. They were next overlaid with the overlay gel (0.5×culture broth, 10 mM sodium phosphate, 0.8% low EEO-type agarose) and covered. The plates were then allowed to incubate overnight at 37° C. in a 5% CO2. The diameter of the zones of inhibition produced by each of the antimicrobial molecules against the OM pathogens (NTHi, M. catarrhalis and S. pneumoniae) was then measured in three separate experiments and the average and standard deviation were calculated. Physiologically, salt concentrations vary depending on the site. However, typically they can be as high as 150 mM. Thus, the salt sensitivity of the antimicrobial molecules was tested. NaCl was added to the gel in Example 2 to obtain a final concentration of 100 mM.

[2] = test system: S. pneumoniae serotype 6B; format: cell-based, Streptococcus pneumoniae
Method: as §2

B1: lactoferrin (protein, UniProt P02788 20-710, looked up)
Lactotransferrin: GRRRSVQWCAVSQPEATKCFQWQRNMRKVRGPPVSCIKRDSPIQCIQAIAENRADAVTLDGGFIYEAGLAPYKLRPVAAEVYGTERQPRTHYYAVAVVKKGGSFQLNELQGLKSCHTGLRRTAGWNVPIGTLRPFLNWTGPPEPIEAAVARFFSASCVPGADKGQFPNLCRLCAGTGENKCAFSSQEPYFSYSGAFKCLRDGAGDVAFIRESTVFEDLSDEAERDEYELLCPDNTRKPVDKFKDCHLARVPSHAVVARSVNGKEDAIWNLLRQAQEKFGKDKSPKFQLFGSPSGQKDLLFKDSAIGFSRVPPRIDSGLYLGSGYFTAIQNLRKSEEEVAARRARVVWCAVGEQELRKCNQWSGLSEGSVTCSSASTTEDCIALVLKGEADAMSLDGGYVYTAGKCGLVPVLAENYKSQQSSDPDPNCVDRPVEGYLAVAVVRRSDTSLTWNSVKGKKSCHTAVDRTAGWNIPMGLLFNQTGSCKFDEYFSQSCAPGSDPRSNLCALCIGDEQGENKCVPNSNERYYGYTGAFRCLAENAGDVAFVKDVTVLQNTDGNNNEAWAKDLKLADFALLCLDGKRKPVTEARSCHLAMAPNHAVVSRMDKVERLKQVLLHQQAKFGRNGSDCPDKFCLFQSETKNLLFNDNTECLARLHGKTTYEKYLGPQYVAGITNLKKCSTSPLLEACEFLRK
effect of salt on the growth inhibitory effect against NTHi (NTHi strain12): completely blocked | effect of salt on the growth inhibitory effect against M. catarrhalis [1]: completely blocked | effect on growth of S. pneumoniae serotype 3 (S. pneumoniae serotype 3; 10 μg, equivalent to 2.5 mg/ml): enhancement of the growth | effect of salt on the growth inhibitory effect against S. pneumoniae serotype 3 (S. pneumoniae serotype 3; 100 mM NaCl in gel): completely blocked | effect of salt on the growth inhibitory effect against S. pneumoniae serotype 6B ([2]; 100 mM NaCl in gel): completely blocked | effect on growth of S. pneumoniae serotype 6B ([2]; 10 and 40 μg, equivalent to 2.5 and 10 mg/ml): enhancement of the growth
